Measurements reported in patent publication US10941182 (Amgen, dated 2021).
Starred links: 1 amine or outer side, 2 acyl side, 3 side chain; linkers in the order of their positions; H or OH if unused. Non-standard residues stand in square brackets, D forms with d. Primed or numbered codes have the meaning given here. *: point of attachment. AC4Abu = α-carboxy-4-aminobutyric acid, O=C(C(CCN[*:1])C(=O)[*:3])[*:2]; dBip = N[C@H](Cc1ccc(-c2ccccc2)cc1)C(=O)O; Oic = O=C(O)[C@@H]1C[C@@H]2CCCC[C@@H]2N1; Phe(4-Cl) = N[C@@H](Cc1ccc(Cl)cc1)C(=O)O; Phe(4-I) = N[C@@H](Cc1ccc(I)cc1)C(=O)O; γGlu = O=C(O)[C@H](CCC(=O)[*:2])N[*:1]; 2Nal = N[C@@H](Cc1ccc2ccccc2c1)C(=O)O; NMehArg = CN[C@@H](CCCCNC(=N)N)C(=O)O; HOOC(CH2)8CO = O=C(O)CCCCCCCCC(=O)*; NMeR = CN[C@@H](CCCNC(=N)N)C(=O)O; Palmitoyl = CCCCCCCCCCCCCCCC(=O)*; Tridecanoyl = CCCCCCCCCCCCC(=O)*; hArg = N=C(N)NCCCC[C@H](N)C(=O)O; Cha = N[C@@H](CC1CCCCC1)C(=O)O; NMeL = CN[C@@H](CC(C)C)C(=O)O; αMeL = CC(C)C[C@](C)(N)C(=O)O; αMeP = C[C@@]1(C(=O)O)CCCN1; AC4Abu″ = not defined here; β3hP = O=C(O)C[C@@H]1CCCN1; Nle = CCCC[C@H](N)C(=O)O; Pip′ = not defined here; Dap = NC[C@H](N)C(=O)O; AEEA = NCCOCCOCC(=O)O; Aib = CC(C)(N)C(=O)O

T1: rat APJ receptor (rat, UniProt Q9JHG3 1-377)
T1 sequence (looked up): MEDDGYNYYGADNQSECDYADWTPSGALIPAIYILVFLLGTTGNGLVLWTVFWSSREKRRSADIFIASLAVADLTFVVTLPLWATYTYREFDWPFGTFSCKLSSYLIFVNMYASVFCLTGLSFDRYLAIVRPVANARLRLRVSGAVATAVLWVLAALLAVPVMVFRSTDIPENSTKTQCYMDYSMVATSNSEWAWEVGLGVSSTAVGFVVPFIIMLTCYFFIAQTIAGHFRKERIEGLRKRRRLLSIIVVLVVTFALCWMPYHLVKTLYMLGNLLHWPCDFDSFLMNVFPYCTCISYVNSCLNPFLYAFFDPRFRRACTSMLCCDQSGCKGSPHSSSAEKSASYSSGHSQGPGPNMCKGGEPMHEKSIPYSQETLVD

T2: rat APJ receptor (rat, UniProt Q9JHG3 1-377)
T2 sequence (looked up): T1 sequence (looked up)

B1: SEQ ID NO: 291 (peptide)
peptide: {HOOC(CH2)8CO}-[γGlu][AEEA][AEEA][hArg][dR]Q[hArg]P[dR][NMeL]SHKG[Oic][Phe(4-I)]P[dBip]-OH
SMILES: CC(C)C[C@@H](C(=O)N[C@@H](CO)C(=O)N[C@@H](Cc1c[nH]cn1)C(=O)N[C@@H](CCCCN)C(=O)NCC(=O)N1[C@H](C(=O)N[C@@H](Cc2ccc(I)cc2)C(=O)N2CCC[C@H]2C(=O)N[C@H](Cc2ccc(-c3ccccc3)cc2)C(=O)O)C[C@@H]2CCCC[C@@H]21)N(C)C(=O)[C@@H](CCCNC(=N)N)NC(=O)[C@@H]1CCCN1C(=O)[C@H](CCCCNC(=N)N)NC(=O)[C@H](CCC(N)=O)NC(=O)[C@@H](CCCNC(=N)N)NC(=O)[C@H](CCCCNC(=N)N)NC(=O)COCCOCCNC(=O)COCCOCCNC(=O)CC[C@H](NC(=O)CCCCCCCCC(=O)O)C(=O)O
B2: SEQ ID NO: 73 (peptide)
peptide: Ac-QR[NMehArg]LSHKGP[Nle]P[Phe(4-Cl)]-OH
SMILES: CCCC[C@H](NC(=O)[C@@H]1CCCN1C(=O)CNC(=O)[C@H](CCCCN)NC(=O)[C@H](Cc1c[nH]cn1)NC(=O)[C@H](CO)NC(=O)[C@H](CC(C)C)NC(=O)[C@H](CCCCNC(=N)N)N(C)C(=O)[C@H](CCCNC(=N)N)NC(=O)[C@H](CCC(N)=O)NC(C)=O)C(=O)N1CCC[C@H]1C(=O)N[C@@H](Cc1ccc(Cl)cc1)C(=O)O
B3: Apelin polypeptide SEQ ID NO: 454 (peptide)
peptide: Tridecanoyl-[AC4Abu″][AEEA][AEEA][dQ][hArg][Aib][dR][Cha]SHKG[Oic][Nle]P[Phe(4-Cl)]-OH
modifications: reading uncertain; also: printed as {TDA}[AC4Abu][Aeea][Aeea]q[hArg][Aib]r[Cha]SHKG[Oic][Nle]P[4-Cl-F]{COOH}
B4: Apelin polypeptide SEQ ID NO: 419 (peptide)
peptide: Tridecanoyl-[AC4Abu][AEEA][AEEA]QRP[NMeR][Cha]SAKG[Oic][Nle]P[Phe(4-Cl)]-OH
SMILES: CCCCCCCCCCCCC(=O)NCCC(C(=O)O)C(=O)NCCOCCOCC(=O)NCCOCCOCC(=O)N[C@@H](CCC(N)=O)C(=O)N[C@@H](CCCNC(=N)N)C(=O)N1CCC[C@H]1C(=O)N(C)[C@@H](CCCNC(=N)N)C(=O)N[C@@H](CC1CCCCC1)C(=O)N[C@@H](CO)C(=O)N[C@@H](C)C(=O)N[C@@H](CCCCN)C(=O)NCC(=O)N1[C@H](C(=O)N[C@@H](CCCC)C(=O)N2CCC[C@H]2C(=O)N[C@@H](Cc2ccc(Cl)cc2)C(=O)O)C[C@@H]2CCCC[C@@H]21
B5: Apelin polypeptide SEQ ID NO: 471 (peptide)
peptide: Tridecanoyl-[AC4Abu″][AEEA][AEEA]QRP[NMehArg]LSHKGP[Nle]P[2Nal]-OH
modifications: reading uncertain; also: printed as {TDA}[AC4Abu][Aeea][Aeea]QRP[NMehArg]LSHKGP[Nle]P[2Nal]{COOH}
B6: Apelin polypeptide SEQ ID NO: 481 (peptide)
peptide: Tridecanoyl-[AC4Abu″][AEEA][AEEA][dR][dQ][hArg]P[hArg][Cha]SHKG[Oic][Nle]P[Phe(4-Cl)]-OH
modifications: reading uncertain; also: printed as {TDA}[AC4Abu][Aeea][Aeea]rq[hArg]P[hArg][Cha]SHKG[Oic][Nle]P[4-Cl-F]{COOH}

molecular target: T1, rat APJ receptor; experiment: cell-based or functional assay

EC50 Rat APJ Receptor [pM] | Binder
2470 | B1
5940 | XXXQRPRLSHKGPXPF ({AdpA}[AC4Abu][Aeea][Aeea]QrP[hArg][aMeLeu]SHKGP[Nle]P[4-Cl-F]{COOH}) [SEQ ID NO: 515]
1000 | XXXQRPRLSHKGPXPF ({AdpA}[AC4Abu][Aeea][Aeea]QRP[NMeArg]LSHKGP[Nle]P[4-Cl-F]{COOH}) [SEQ ID NO: 461]
6690 | XXXQRPRLSHKGPXPF ({hexanoyl}[AC4Abu][Aeea][Aeea]QrP[hArg][aMeLeu]SHKGP[Nle]P[4-Cl-F]{COOH}) [SEQ ID NO: 514]
598 | XXXQRPRLSHKGPXPF ({Myristyl-NH}[AC4Abu][Aeea][Aeea]QRP[NMeArg]LSHKGP[Nle]P[4-Cl-F]{COOH}) [SEQ ID NO: 592]
453 | XXXQRPRLSHKGPXPF ({Butanoyl}[AC4Abu][Aeea][Aeea]QRP[NMeArg]LSHKGP[Nle]P[4-Cl-F]{COOH}) [SEQ ID NO: 491]
16100 | KLRKHNCLQRRCMPLHSRVPFP [SEQ ID NO: 15]
231 | XXXQRPRLSHKGPXPF ({Palm}[AC4Abu][Aeea][Aeea]QRP[NMeArg]LSHKGP[Nle]P[4-Cl-F]{COOH}) [SEQ ID NO: 593]
6120 | XXXQRPRLSHKGPXPF ({ODDA}[AC4Abu][Aeea][Aeea]QRP[NMeArg]LSHKGP[Nle]P[4-Cl-F]{COOH}) [SEQ ID NO: 513]
903 | XXXQRPRLSHKGPXPF ({DDDA}[AC4Abu][Aeea][Aeea]QRP[NMeArg]LSHKGP[Nle]P[4-Cl-F]{COOH}) [SEQ ID NO: 510]
871 | Ac-[hArg][dR]Q[hArg]E[dR][NMeL]SHKG[Oic][Phe(4-I)]P[dBip]-OH [SEQ ID NO: 78]
486 | Palmitoyl-[AC4Abu″][AEEA][AEEA][dQ]RP[NMeR][αMeL]S[Dap]KG[Oic][Nle][β3hP][Phe(4-Cl)]-OH (reading uncertain) [SEQ ID NO: 630]
2750 | QRPRLSHKGPXPF ({Acetyl-NH}Q[hArg]P[NMeArg][aMeLeu]SHKGP[Nle]P[4-Cl-F]{COOH}) [SEQ ID NO: 71]
9160 | XXXQRPRLSHKGPXPF ({hexanoyl}[AC4Abu][Aeea][Aeea]QRP[hArg][aMeLeu]SHKGP[Nle]P[4-Cl-F]{COOH}) [SEQ ID NO: 559]
9740 | QRPRLSHKGPXPF ({Acetyl-NH}QrP[hArg][aMeLeu]SHKGP[Nle]P[4-Cl-F]{COOH}) [SEQ ID NO: 70]
384 | QRPRLSHKGPXPF ({Acetyl-NH}QRP[NMeArg]LSHKGP[Nle]P[4-Cl-F]{COOH}) [SEQ ID NO: 68]
47200 | B2

molecular target: T2, rat APJ receptor; experiment: cell-based or functional assay

EC50 Rat APJ Receptor (GTPγS assay) [pM] | Binder
382 | XXXQRPRLSHKGPXPF ({TDA}[AC4Abu][Aeea][Aeea]QRP[NMeArg]LSHKGP[Nle][BhPro][4-Cl-F]{COOH}) [Apelin polypeptide SEQ ID NO: 426]
5350 | B3
184 | Tridecanoyl-[AC4Abu″][AEEA][AEEA]Q[hArg]P[NMeR][Cha]SHKGP[Nle]P[Phe(4-Cl)]-OH (reading uncertain) [Apelin polypeptide SEQ ID NO: 408]
767 | XXXQRPRLSHKGPXPF ({TDA}[AC4Abu][Aeea][Aeea]Q[NMehArg]P[NMeArg][aMeLeu]SHKGP[Nle]P[4-Cl-F]{COOH}) [Apelin polypeptide SEQ ID NO: 484]
346 | Tridecanoyl-[AC4Abu″][AEEA][AEEA]QRP[NMeR][Cha]SHKG[Pip′][Nle]P[Phe(4-Cl)]-OH (reading uncertain) [Apelin polypeptide SEQ ID NO: 416]
229 | XXXQRPRLSHKGPXPF ({TDA}[AC4Abu][Aeea][Aeea]Q[hArg]P[NMehArg]LSHKGP[Nle]P[4-Cl-F]{COOH}) [Apelin polypeptide SEQ ID NO: 483]
60 | XXXQRPRLSHKGPXPF ({TDA}[AC4Abu][Aeea][Aeea]QRP[hArg]LSHKGP[Nle]P[4-Cl-F]{COOH}) [Apelin polypeptide SEQ ID NO: 355]
166 | XXXQRPRLSHKGPXPF ({TDA}[AC4Abu][Aeea][Aeea]QRP[NMeArg][aMeLeu]SHKG[aMePro][Nle]P[4-Cl-F]{COOH}) [Apelin polypeptide SEQ ID NO: 387]
253 | Tridecanoyl-[AC4Abu″][AEEA][AEEA]QRP[NMeR][Cha]SHKG[αMeP][Nle]P[Phe(4-Cl)]-OH (reading uncertain) [Apelin polypeptide SEQ ID NO: 418]
240 | XXXQRPRLSHKGPXPF ({TDA}[AC4Abu][Aeea][Aeea]Q[hArg]P[hArg]LSHKGP[Nle]P[4-Cl-F]{COOH}) [Apelin polypeptide SEQ ID NO: 357]
379 | B4
1330 | XXXQRPRLSHKGPXPF ({TDA}[AC4Abu][Aeea][Aeea]QRP[NMeArg]LS[rHis]KGP[Nle]P[4-Cl-F]{COOH}) [Apelin polypeptide SEQ ID NO: 469]
420 | XXXQXPRLSHKGPXPF ({TDA}[AC4Abu][Aeea][Aeea]Q[Cit]P[NMeArg]LSHKGP[Nle]P[4-Cl-F]{COOH}) [Apelin polypeptide SEQ ID NO: 400]
165 | XXXQRPRLSHKGPXPF ({TDA}[AC4Abu][Aeea][Aeea]QRP[NMeArg]L[aMeS]HKGP[Nle]P[4-Cl-F]{COOH}) [Apelin polypeptide SEQ ID NO: 468]
230 | XXXQRPRLSHKGPXPF ({TDA}[AC4Abu][Aeea][Aeea]QRP[NMeArg][NMeLeu]SHKGP[Nle]P[4-Cl-F]{COOH}) [Apelin polypeptide SEQ ID NO: 459]
444 | Tridecanoyl-[AC4Abu″][AEEA][AEEA][dQ]RP[NMeR][αMeL][BhSer]HKG[Oic][Nle][αMeP][Phe(4-Cl)]-OH (reading uncertain) [Apelin polypeptide SEQ ID NO: 518]
242 | XXXQRPRLSHKGPXPF ({TDA}[AC4Abu][Aeea][Aeea]QRP[NMeArg]LSHKGP[Nle]P[4-Cl-F]{COOH}) [Apelin polypeptide SEQ ID NO: 287]
178 | XXXQRPRLSHKGPXPF ({TDA}[AC4Abu][Aeea][Aeea]QrP[NMehArg][aMeLeu]SHKGP[Nle]P[4-Cl-F]{COOH}) [Apelin polypeptide SEQ ID NO: 456]
56.4 | XXXQRPRLSHKGPXPF ({TDA}[AC4Abu][Aeea][Aeea]QRP[NMeArg][aMeLeu]SHKGP[Nle]P[4-Cl-F]{COOH}) [Apelin polypeptide SEQ ID NO: 457]
410 | XXXQRPRLSHKGPXPF ({TDA}[AC4Abu][Aeea][Aeea]QrP[hArg][aMeLeu]SHKGP[Nle]P[4-Cl-F]{COOH}) [Apelin polypeptide SEQ ID NO: 485]
97.4 | B5
120 | XXXQRPRLSHKGPXPF ({TDA}[AC4Abu][Aeea][Aeea]QRP[NMeArg][BLeu]SHKGP[Nle]P[4-Cl-F]{COOH}) [Apelin polypeptide SEQ ID NO: 458]
341 | B6
